Substrate in the series: C=C(C)CCO[P@@](=O)(O)OP(=O)(O)O
Description: purified protein, by the assay type. As to conditions: other: saturating excess of GPP (∼500-fold over enzyme, 10-fold over IPP), steady-state equation accounting for product inhibition, Kp 6 μM, 30 °C, pH 7.5.

B1: human FPPS (Homo sapiens) (protein)
chain: MNGDQNSDVYAQEKQDFVQHFSQIVRVLTEDEMGHPEIGDAIARLKEVLEYNAIGGKYNRGLTVVVAFRELVEPRKQDADSLQRAWTVGWCVELLQAFFLVADDIMDSSLTRRGQICWYQKPGVGLDAINDANLLEACIYRLLKLYCREQPYYLNLIELFLQSSYQTEIGQTLDLLTAPQGNVDLVRFTEKRYKSIVKYKTAFYSFYLPIAAAMYMAGIDGEKEHANAKKILLEMGEFFQIQDDYLDLFGDPSVTGKIGTDIQDNKCSWLVVQCLQRATPEQYQILKENYGQKEAEKVARVKALYEELDLPAVFLQYEEDSYSHIMALIEQYAAPLPPAVFLGLARKIYKRRK
Broadly, the Km is the substrate concentration at which the rate is half of its maximum. As to B1, the Km is 1.1 µM.
